Laboratory results published in patent US20070207522A1 (UNIVERSITY OF VIRGINIA PATENT FOUNDATION, published 2007).
One block for each binder: values may come before it.

Assays:
[1] = biological target: T1, human syndecan-1 (human, UniProt P18827 23-310); experiment: pull-down from lysates of transfected cells with intein-tagged deletion mutant
T1 construct: also called mammalian syndecan-1; CD138
T1 sequence (looked up): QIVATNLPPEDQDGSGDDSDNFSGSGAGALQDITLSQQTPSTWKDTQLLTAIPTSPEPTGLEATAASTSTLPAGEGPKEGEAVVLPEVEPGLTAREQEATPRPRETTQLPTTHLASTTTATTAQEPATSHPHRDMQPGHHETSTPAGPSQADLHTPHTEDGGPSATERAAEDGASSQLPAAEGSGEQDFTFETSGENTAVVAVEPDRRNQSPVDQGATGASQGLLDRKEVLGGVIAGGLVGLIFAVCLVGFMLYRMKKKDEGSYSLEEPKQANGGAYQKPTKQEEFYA
Procedure: (§1) After washing extensively in physiological salt-containing buffer, bound protein was eluted with 1 M NaCl, and identified with avidin-peroxidase using an ECL blot method. […] 293T cells stably transfected with human syndecan-2 or −4 were kindly provided by Dr. Atsushi Utani (Chiba University). […] Immunolocalization of syndecan-1 in human lacrimal glands was performed using anti-human syndecan-1 antibody (CD138).

[2] = biological target: T1, human syndecan-1; experiment: lacritin affinity column, biotinylated cell surface proteins, elution with 1 M NaCl, sequencing
Procedure: as §1

[3] = biological target: T1, human syndecan-1; experiment: pull-down from lysates of transfected cells with intein-tagged lacritin, SDS PAGE
Procedure: as §1

[4] = biological target: human syndecan-2 (human, UniProt P34741 19-201); experiment: pull-down from lysates of transfected 293T cells with intein-tagged lacritin
Chain of human syndecan-2 (P34741 19-201 limits assumed): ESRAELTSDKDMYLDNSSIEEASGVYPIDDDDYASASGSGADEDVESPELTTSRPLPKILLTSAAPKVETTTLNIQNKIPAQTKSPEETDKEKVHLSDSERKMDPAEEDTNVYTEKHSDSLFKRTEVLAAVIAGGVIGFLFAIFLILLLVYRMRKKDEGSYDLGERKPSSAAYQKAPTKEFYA
Procedure: as §1

[5] = biological target: T2, human syndecan-4 (human, UniProt P31431 19-198); experiment: as above
T2 sequence (looked up): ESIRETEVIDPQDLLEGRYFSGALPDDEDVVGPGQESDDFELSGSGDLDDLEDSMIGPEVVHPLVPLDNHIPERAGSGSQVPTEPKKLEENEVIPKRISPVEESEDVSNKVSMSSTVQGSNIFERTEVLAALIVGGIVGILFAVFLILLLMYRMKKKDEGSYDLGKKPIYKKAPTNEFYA
Procedure: as §1

- binding result [1]: no binding
B1: intein-tagged lacritin deletion mutant C-25 (ligand)
chain: EDASSDSTGADPAQEAGTSKPNEEISGPAEPASPPETTTTAQETSAAAVQGTAKVTSSRQELNPLKSIVEKSILLTEQALAKAGKGMHGGVPGG
notes: Pull-downs used 'intein deletion mutants'; also called lacritin lacking 25 C-terminal amino acids; not shown: intein tag of vector pTYB11

- binding result [2]: binds
B2: mature lacritin (recombinant, from pLAC, cleaved from intein) (ligand)
chain: EDASSDSTGADPAQEAGTSKPNEEISGPAEPASPPETTTTAQETSAAAVQGTAKVTSSRQELNPLKSIVEKSILLTEQALAKAGKGMHGGVPGGKQFIENGSEFAQKLLKKFSLLKPWA
notes: also called soluble lacritin

- binding result [3]: binds
- binding result [4]: no binding
- binding result [5]: no binding
B3: intein-tagged lacritin (pLAC lacritin-intein fusion) (ligand, not shown: small tags and cut ends)
chain: B2 chain
